Test system: MS2 coat protein
Assay: apparent KD of MS2 coat protein; designed switch direction (-1 OFF switch, 1 ON switch): -1; higher = weaker reporter binding
In short: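 Designed RNA switches sharing common flanks were transcribed on Illumina chips by stalled E. coli RNA polymerase. They were titrated with SNAP-549-labelled MS2 coat protein, from 0.7 or 1.5 nM doubling to 3 µM, in Tris-HCl pH 7.5 buffer with KCl, MgCl2, BSA, DTT, tRNA and Tween-20. Titrations ran without input, with 200 uM small-molecule ligand, or with an oligonucleotide input. The apparent KD of each design is the median over its clusters, after curve-fitting of normalised cluster fluorescence.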

[1] = Eterna round: R95, input ligand: FMN 200 uM
[2] = Eterna round: R95, input ligand: microRNA oligo, concentration not stated
[3] = Eterna round: R95, input ligand: none
[4] = input ligand: microRNA oligo, concentration not stated

Row | Sequence | apparent KD of MS2 coat protein (input ligand: FMN 200 uM) [nM] | apparent KD of MS2 coat protein (input ligand: none) [nM] | apparent KD of MS2 coat protein [1] [nM] | apparent KD of MS2 coat protein [2] [nM] | apparent KD of MS2 coat protein [3] [nM] | apparent KD of MS2 coat protein [4] [nM]
1 | GCCGAAAAAGUGAGGAUAUACCUAUGGAAACAUAGGUAGAAGGCACAUGAGGAUCACCCAUGUAUCCUAACGGC [Mat - Exclusion 4 - Eli Mod - D28] (Eterna round: R97, puzzle: Brourd's mod of Exclusion 4) | 268 | 28.5 |  |  |  | 
2 | GCCGAUUAAGUGAGGAUAUACCUAUGGAAACAUAGGUAGAAGGCACAUGAGGAUCACCCAUGUUCCUAUACGGC [Fiskers BMX 4 - 5] (puzzle: Brourd's mod of Exclusion 4) |  |  | 36.4 | 12.3 | 11 | 
3 | GCCGAUUAAGUGAGGAUAUACCUAUGGAUACAUAGGUAGAAGGUACAUGAGGAUCACCCAUGUUCCUCAACGGC [Fiskers BMX 4 - 9] (puzzle: Brourd's mod of Exclusion 4) |  |  |  | 8.93 |  | 
4 | GCCGCCGCCUUGGCGGCGGACAUGAGGAUCACCCAUGUCAAGCUUUUGCUCGUCUUAUUUGGCCGGCUUGCCGGCCA [Olib_1] (Eterna round: R97, puzzle: Sensor, turn-off variant 1) | 24.5 | 26.1 |  |  |  | 
5 | GCCGUACAAGGAUAUCUAUCGCAAAACAUGAGGAUCACCCAUGUGUAUCCUAACCGGCGAAGAGAAGGUGUAGUUA [Letelabe] (Eterna round: R97, puzzle: Exclusion 5) | 24.4 | 18.1 |  |  |  | 
6 | GCCGUGUUAGGAUAUCGCUCGACGAAUAGUUGUCGGAGGAACGAGAAGGAACAUGAGGAUCACCCAUGUGUCAC [Eternabot (L1) Solution 33] (Eterna round: R97, puzzle: Exclusion 4) | 57.5 | 21.4 |  |  |  | 
7 | GCCUCACUUGAGGAUCACCCAAGUCAGGAUAUCUACAAGCCGGCCAUACCGGCUUGCAAGAGAAGGGACUCUAA [Xemamaqu] (Eterna round: R97, puzzle: Exclusion 1) | 178 | 38.5 |  |  |  | 
8 | GCCUCACUUGAGGAUCACCCAAGUCAGGAUAUUUGAAAGCAAGCCUAAAACACGCGUAAAAGAAGGGACUUGAA [Armare] (Eterna round: R97, puzzle: Exclusion 1) | 30.3 | 20.9 |  |  |  | 
9 | GCCUUAUCCGUCAGGAUAUACAGCCGCUCCCUGUUGUAGAAGGGACAUGAGGAUCACCCAUGUACGUACCACCG [alecazam8] (Eterna round: R97, puzzle: Brourd's mod of Exclusion 4) | 28.1 | 29.2 |  |  |  | 
10 | GCCUUAUCGGUCAGGAUAUACACCCGUCACUUGUUGUAGAAGGGACAUGAGGAUCACCCAUGUACAUUACAUUG [alecazam37] (Eterna round: R97, puzzle: Brourd's mod of Exclusion 4) | 31.3 | 26 |  |  |  | 
11 | GCCUUGGGAGUCAGGAUAUACAAUAAAAUAAUUAAGUAGAAGGGACAUGAGGAUCACCCAUGUACAUUACAUCG [alecazam31] (Eterna round: R97, puzzle: Brourd's mod of Exclusion 4) | 39.5 | 25.7 |  |  |  | 
12 | GCGACAGCGGUUAGGAUAUAUGUUAGGACGUAGAUAUAGAAGGAACAUGAGGAUCACCCAUGUUUAAAAUGGGA [Eternabot (L1) Solution 71] (Eterna round: R97, puzzle: Brourd's mod of Exclusion 4) | 69.5 | 71.9 |  |  |  | 
13 | GCGCCAUCGUGAGAUGGCGUAUAAACAUGAGGAUCACCCAUGUAGGAUAUCGAUUGCUUUGCAGUCGAGAAGGGCAUUAUAAGU [JL ENG3 3.75] (Eterna round: R96, puzzle: Exclusion NG 3) | 29.2 | 28.4 |  |  |  | 19
14 | GCGGGAAAAGGAUAUGAGAGGUAAUACAUGAGGAUCACCCAUGUGAUAGACUCUGUGCUUUUAGAAGGUUUAUGUC [Eternabot (L1) Solution 19] (Eterna round: R97, puzzle: Exclusion 5) | 14.3 | 15.3 |  |  |  | 
15 | GCGGUACAUGAGGAUCACCCAUGUCAGGAUAUCCGCUGUAACUUAAUAAAUAAGCGGUGGAGAAGGGACUUCGC [-18.24, -17.54 kcal, 30% A] (Eterna round: R97, puzzle: Exclusion 1) | 34.2 | 27.6 |  |  |  | 
16 | GCGUACAGCCUAAGCAGUGACAUGAGGAUCACCCAUGUACGAACGUUUACCAAGCUUGUCUUAAUACCAUUAUAAAU [Eternabot (L1) Solution 20] (Eterna round: R97, puzzle: Sensor, turn-off variant 1) | 23.7 | 28.9 |  |  |  | 
17 | GCGUAGUAUGUAGGAUAUCGGUCAGUUUCUGAUCGAGAAGGACAUGAGGAUCACCCAUGUAAAACGCCCGCUUUGUGGGUACGC [JL ENG1 3.59] (Eterna round: R96, puzzle: Exclusion NG 1) | 55.4 | 22.4 |  |  |  | 17.6

Row | Sequence | apparent KD of MS2 coat protein (input ligand: FMN 200 uM) [nM] | apparent KD of MS2 coat protein (input ligand: none) [nM] | apparent KD of MS2 coat protein [1] [nM] | apparent KD of MS2 coat protein [2] [nM] | apparent KD of MS2 coat protein [3] [nM] | apparent KD of MS2 coat protein [4] [nM]
18 | GCGUAGUAUGUAGGAUAUCGGUCAGUUUCUGAUCGAGAAGGACAUGAGGAUCACCCAUGUAAAUUGCCCGCUUUGUGGGUACGC [JL ENG1 3.60] (Eterna round: R96, puzzle: Exclusion NG 1) | 59.3 | 22.5 |  |  |  | 19.1
19 | GCGUUCUGAGGAUAUACAUGAGGAUCACCCAUGUUGAGAAUUAUGUAUAAAAGAUUAUGUAGAAGGCAGAGUGC [JR_Ex3_Sub071] (Eterna round: R97, puzzle: Exclusion 3) | 140 | 716 |  |  |  | 
20 | GCUACCAGAGUGAGGAUAUCGGAUGCGCAAGCACACGAGAAGGCACAUGAGGAUCACCCAUGUAUGGUAGCCGU [eternacac ex4r4 #9] (Eterna round: R97, puzzle: Brourd's mod of Exclusion 4) | 13.2 | 39.1 |  |  |  | 
21 | GCUAUGACUGUGAGGAUAUGGACCGGGCUCUCGGAUUAGAAGGCACAUGAGGAUCACCCAUGUGAUCACGUACU [Eternabot (L2) Solution 87] (Eterna round: R97, puzzle: Brourd's mod of Exclusion 4) | 42.2 | 27.5 |  |  |  | 
22 | GCUCAGAUGACAGGAUAUCACGCCUGGCAGAUGGGCGACAUGAGGAUCACCCAUGUCCAGCACGAUGAGAAGGGUUAUCGGGCG [Ririorti] (Eterna round: R96, puzzle: Exclusion NG 2) | 195 | 96.4 |  |  |  | 94.2
23 | GCUCAGUAAGGAUAUUGUUUAGGAGCUAUAGGCGUAGUUAACAAGAAGGUACAUGAGGAUCACCCAUGUCCAUC [Eternabot (L2) Solution 36] (Eterna round: R97, puzzle: Exclusion 4) | 17.7 | 15.1 |  |  |  | 
24 | GCUCGUGGGCAAGGAUAUCCUACGCUGUUCUGGUUCGUGUCUGUCACAUGAGGAUCACCCAUGUGGGAGAAGGUGCACCAGGGU [Design 51] (Eterna round: R96, puzzle: Exclusion NG 2) | 10.8 | 14 |  |  |  | 9.67
25 | GCUGCAAGAGGAUAUACAUGAGGAUCACCCAUGUGAAAUUAUAGUGAGGAAAUGAAAAGUAGAAGGCUUGUAGA [Mod of Mat 15 - Jieux - Exclusion 3] (Eterna round: R97, puzzle: Exclusion 3) | 86.6 | 38.1 |  |  |  | 
26 | GCUGCACAUGUAGGAUAUCUGCACGAUUAGUGCAGAGAAGGACAUGAGGAUCACCCAUGUAGAUCAGCAGCAAUUAAUUUAAUU [ENG1/6-A1] (Eterna round: R96, puzzle: Exclusion NG 1) | 232 | 400 |  |  |  | 241
27 | GCUGCGCGAGGAUAUGCGGUUCGCGCUGUGGCCCGUGGCGGACAUGAGGAUCACCCAUGUAGAAGGCGUGCGGG [Apr-15 SS2-58] (puzzle: Exclusion 2) |  |  |  | 10.3 |  | 
28 | GCUGCGCGAGGAUAUGCGGUUUGUGCUUUGGGCCCUGGCGUACAUGAGGAUCACCCAUGUAGAAGGCGUGUGGG [Apr-15 SS2-51] (puzzle: Exclusion 2) |  |  |  | 32.8 |  | 
29 | GCUGGAAAAGGAUAUACAUAACGUGCGUCGGCACGAGAUCUACAUGAGGAUCACCCAUGUAGAAGGUUUCCAGC [EX2 #73] (Eterna round: R97, puzzle: Exclusion 2) | 33.4 | 14.3 |  |  |  | 
30 | GCUUCUGGGCAAGGAUAUCCUGCGCUGUUCUGGUUCGUGUCUGUCACAUGAGGAUCACCCAUGUGGGAGAAGGUGCCUGUGGUG [Design 69] (Eterna round: R96, puzzle: Exclusion NG 2) | 18.8 | 19.5 |  |  |  | 11.3
31 | GCUUGAGCAGGAUAUACAAUGAGCUUGAGAAAUCGAGUUCGACAUGAGGAUCACCCAUGUAGAAGGGUUCGAGU [-27.3, -25 kcal, A 31% 1 and 1bis] (Eterna round: R97, puzzle: Exclusion 2) | 38.4 | 24.3 |  |  |  | 
32 | GCUUGUGUUGAGGAUAUGCGCCGGCUCGCUGGCGCAGAAGGCGGCACAUGAGGAUCACCCAUGUCAGUUCGCGU [salish99_ex6_r004_010] (Eterna round: R97, puzzle: Exclusion 6) | 428 | 38 |  |  |  | 
33 | GCUUUUCUUUUCCUUUCUUACAUGAGGAUCACCCAUGUUUCUUGUCCUGCUCGCGUUGCUCGUCUGUCUGUCUGUUG [salish99_TOv1_r3_080] (puzzle: Sensor v3, turn-off variant 1) |  |  | 28.7 | 24.3 | 31.2 | 

— the supplement of paper PMC9170038
